Substitutions are numbered along the chain they refer to.
Assays:
[1] = target: T1, MUC4-Tn glycopeptide CTIPSTAMHTRSTAAPIPILP (SEQ ID NO:154) with O-linked GalNAc on the serine and threonine … (not fully specified; O-linked GalNAc on Ser 12 and Thr 13; N-terminal biotin (Table 6); C-terminal amide in the form described in the SPR/BLI methods); assay: BLI (Octet), apparent affinity; peptide on biosensor; error +/- 0.251 nM at 95% confidence (r8c5)
T1 construct: Synthetic glycopeptide made by FMOC synthesis; also called MUC4 glycopeptide; Tn-glycosylated MUC4 peptide
T1 peptide: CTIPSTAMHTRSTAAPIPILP

[2] = target: T1, MUC4-Tn glycopeptide …; assay: BLI (Octet), apparent affinity; peptide on biosensor; +/- error at 95% confidence; same value as Table 7
[3] = target: T1, MUC4-Tn glycopeptide …; assay: SPR (Biacore); antibody immobilized, peptide as analyte
Excerpt: Antibody affinity assays can be carried out using surface plasmon resonance (e.g., using a Biacore system (Cytiva)). In a surface plasmon resonance assay, one or more antibodies can be immobilized onto a biosensor and presented with an analyte (e.g., the glyco-MUC4 peptide […]-amide (the amino acid portion of which is SEQ ID NO:154; bold and underlined residues indicate GalNAc glycosylation sites) or a negative control analyte such as un unglycosylated MUC4 peptide ([…]-amide (the amino acid portion of which is SEQ ID NO:155)). The antibodies are contacted with different concentrations of the analyte, for example concentrations of 2.5 nM, 7.4 nM, 22 nM, 66 nM and 200 nM. Affinity is measured using multi-cycle kinetics in triplicate for each analyte concentration, with 1 min association and 5 min dissociation. […] The affinity is determined by fitting the binding curve to a specific model: kinetic fit (1:1 model) or if applicable heterogenous ligand binding model.

MUC1-Tn [4] = assay: BLI (Octet), apparent affinity; peptide on biosensor; error +/- 5.9 µM (r8c9)
[5] = target: T2, Tn-glycosylated MUC4 on cells (MUC4-Tn; COSMC-KO cells, cancer tissue) (UniProt Q99102 29-5412, limits assumed, truncated Tn O-glycans (GalNAc-alpha1-O-Ser/Thr), from knock-out of the COSMC chaperone or in cancer tissue); assay: flow cytometry on T3M4 COSMC-KO (T3M4-M) cells
T2 construct: whole, on cells; also called Tn-MUC4; glyco-MUC4
Procedure: Adherent cells were dissociated with TrypLE select (Gibco) and washed from flask surface with cell culture media (RPMI w/L-glutamine, 1% PenStrep, & 10% FBS). Cells were washed several times by centrifugation at 300*g for 5 min at 4° C. followed by resuspension in PBS with 1% BSA (PBS/1% BSA). Cells were resuspended between 5×10⁵ cells/ml to 2×10⁶ cell/ml and then distributed into a 96 well U-bottom plate. Diluted commercial antibody (0.25-2 ug/ml), or purified humanized 2D5 candidates were added to T3M4 COSMC-KO cells and incubated for 1 hr on ice. Following several washes with PBS/1% BSA, cells were incubated for 30 min on ice with a 1:1600 dilution of AlexaFluor647 conjugated F(ab)₂ goat anti-human IgG Fcγ (JacksonImmunoResearch). Cells were washed again with PBS/1% BSA and then fixed in 1% formaldehyde in PBS/1% BSA. Cells were analysed on either a 2 or 4 laser Attune NXT flow cytometer. Data was processed in FlowJo Software.

[6] = target: T1, MUC4-Tn glycopeptide …; assay: BLI (Octet), MUC4 glycopeptide on biosensor
[7] = target: T1, MUC4-Tn glycopeptide …; assay: BLI (Octet), apparent affinity; peptide on biosensor; error +/- 2.32 nM (r10c5)
MUC1-Tn [8] = assay: BLI (Octet), apparent affinity; peptide on biosensor; error +/- 7.6 µM (r10c9)
[9] = target: T3, MUC4-Tn(T) peptide Biotin-CTIPSTAMHTRSTAAPIPILP (SEQ ID NO:198) (GalNAc on a threonine only (by the label Tn(T); the bold/underline marking of the site is lost in the text); N-terminal biotin); assay: BLI (Octet), apparent affinity; peptide on biosensor; error printed as 1 pM (r10c7)
T3 construct: Singly glycosylated form of the MUC4 peptide
T3 peptide: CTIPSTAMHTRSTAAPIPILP

[10] = target: T3, MUC4-Tn(T) peptide …; assay: BLI (Octet), apparent affinity; peptide on biosensor; error +/- 66 µM (r12c7)
MUC1-Tn [11] = assay: BLI (Octet), apparent affinity; peptide on biosensor; error +/- 3.7 µM (r12c9)
[12] = target: T1, MUC4-Tn glycopeptide …; assay: BLI (Octet), apparent affinity; peptide on biosensor; error +/- 10 nM (r12c5)

B1: 2D5.2F6.2C11 (antibody, V domains shown)
VH: QVQLQQSDAELVKPGASVRISCKAYGYTFTDHAIHWVKQKPEQGLEWLGYISPGNDDIQYNAKFKGKATLTADKSSSTAYMQLNSLTSDDSAVYFCKRSMANSFDYWGQGTTLTVSS
VL: NIMLTQSPSSLAVSAGEKVTMSCKSSQSVLYSSDQKNYLAWYQQKPGQSPKLLIYWASTRESGVPDRFTGSGSGTDFTLTISNVQAEDLAVYYCHQYLSSYTFGGGTKLEIK
notes: Murine monoclonal antibody from a hybridoma (Balb/c mice immunized with the KLH-conjugated Tn-MUC4 glycopeptide); also called mAb 2D5
Binder B1 has a Kd [1] of 2 nM, a Kd [2] of 2 nM and a Kd [3] of 3.96 nM. The Kd (MUC1-Tn [4]) was 2900 nM.

B2: 2D5-cAb Chimeric antibody (human Fc domain + murine variable domain) (antibody, V domains shown)
VH: B1 VH
VL: B1 VL
With B2 the EC50 [5] was 0.0177 µg/mL and the Kd [6] was 3.2 nM.

B3: 5B8.2A11.2C7 (antibody, V domains shown)
VH: QVQLQQSDAELVKPGASVKISCKASGYTFTDHAIHWVKQKPEQGLEWIGYFSPGNGDIKYNEKFKGKATLTADRSSSTANMHLNSLTSEDSAVYFCKRSMANYFDYWGQGTTLTVSS
VL: B1 VL with L4M, A12V, Q27H, D34N, R60K, E61N, N83S
notes: Murine monoclonal antibody from a hybridoma; also called mAb 5B8
B3 was tested, and the Kd [7] was 2.32 nM, the Kd (MUC1-Tn [8]) was 2800 nM and the Kd [3] was 3.93 nM. The Kd [9] was 560 nM.

B4: 15F3.2D11.1E6 (antibody, V domains shown)
VH: B1 VH with K13E, R19K, K67R, Y106F
VL: B1 VL with Q85R
notes: Murine monoclonal antibody from a hybridoma; also called mAb 15F3
In the case of B4, the Kd [10] is reported as 79000 nM, the Kd (MUC1-Tn [11]) is reported as 2500 nM and the Kd [3] is reported as 3.56 nM. It also gave a Kd [12] of 50.2 nM.

Source: US20250101126A1 (GO THERAPEUTICS, published 2025)
